Reference: the nanobody polyreactivity screen of Harvey et al. (2022)

Assay: yeast display, Sf9 membrane polyspecificity reagent, FACS + sequencing; frameworks hold sequencing errors
Outline: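 Nanobodies from a synthetic yeast display library (Saccharomyces cerevisiae BJ5465), induced 36–48 hours with galactose, were stained 1 hour at 4 °C with 10% biotinylated, detergent-solubilized Sf9 membrane reagent, enriched on streptavidin microbeads, then FACS-sorted. Anti-HA (expression) and streptavidin (reagent binding) fluorescence set low and high (top ~1%) gates. Polyreactivity labels come from the gate of origin. Genes were colony-PCR amplified, MiSeq 2 × 250 sequenced and filtered by CDR length.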

| Sequence | polyreactivity (PSR sort gate) |
| --- | --- |
| QVQLVESGGGLVQAGGSLRLSCAASGFILYDNTMGWYRQAPGKEREFVAAIRDSGGSTYYADSVKGRFTISRDNAKNTVYLQMNSLKPEDTAVYYCNTYGSGTHSTGYDYWGQGTQVTVSS | low polyreactivity |
| QVQLVESGGGLVQAGGSLRLSCAASGFILYGNTMGWYRQAPGKERELVAAISWSGGNTRYADSVKARFTISRDNAKNTVYLQMNSLQPEDTAVYYCAAYSNYVWSIRRDYWGQGTQVTVSS | low polyreactivity |
| QVQLVESGGGLVQAGGSLRLSCAASGFILYRNAMGWYRQAPGKERELVAAISRNGGSTYYADSVKGRFTISRDNAKNTFYLQMNSLKPEDTAVYYCAARTVGRKAGFDYWGQGTQVTVSS | high polyreactivity |
| QVQLVESGGGLVQAGGSLRLSCAASGFILYYYAMGWYRQAPGKERELVASISRRGGSTYYADSVKGRFTISRDNAKHTVYLQMNSLKPEDTAVYYCNAYSTYIKYDYWGHGTQVTVSS | high polyreactivity |
| QVQLVESGGGLVQAGGSLRLSCAASGFIQPYNTMGWYRQAPGKEREFVAAINYSGGRTYYADSVKGRFTISRDNAKNTVYLQMNRLKPEDTAVYYCAAARYPYRYKYNYWGQGTQVTVSS | high polyreactivity |
| QVQLVESGGGLVQAGGSLRLSCAASGFISARYAMGWYRQAPGKERELVAGISGGGGRTYYADSVKGRFTISRDNAKNTVYLQMNSLKPEDTAVYYCASTQQSRDRRFNYWGQGTQVTVSS | high polyreactivity |
| QVQLVESGGGLVQAGGSLRLSCAASGFISFGNGMGWYRQAPGKERELVAAITRRGGSTYYADSVKGLFTISRDNAKNTVYLQMNSLKPEDTAVYYCDARYLGSTSTNRPPMDYWGQGTQVTVSS | high polyreactivity |
| QVQLVESGGGLVQAGGSLRLSCAASGFISGGNAMGWYRQAPGKEREFVAAIDNTGSTYYADSVKGRFTISRDNAKNTVYLQMNSLKPEDTAVYYCNAEVSEDYVDNDYWGQGTQVTVSS | low polyreactivity |
| QVQLVESGGGLVQAGGSLRLSCAASGFISGSYAMGWYRQAPGKDREFVASISLSDGSTTYADSVKGRFTISRDTAKNPVYLQMNSLKPEDTAVYYCAVQFYYPFTGGTIYEYWGQGTQVTVAS | low polyreactivity |
| QVQLVESGGGLVQAGGSLRLSCAASGFISPSYAMGWYRQAPGKERELVAAIRSSDGSTYYADSVKGRFTISRDNAKNTVYLQMNSLKPEDTAVYYCAAGGSYYRDDYWGQGTQVTVSS | low polyreactivity |
| QVQLVESGGGLVQAGGSLRLSCAASGFISQFYAMGWYRQAPGKERELVAAINWRGDSTYYADSVKGRFTISRDNAKNTVYLQMNSLKPEVTAVYYCAAENWSGYDYWGQGTQVTVSS | high polyreactivity |
| QVQLVESGGGLVQAGGSLRLSCAASGFISRYAMGLYRQAPGKERELVAAINRSGGRTYYADSVKGRFTISRDNAKNTVYLQMNSLKPEDTAVYYCAAERSSSYTYDFWGQGTQVTVSS | high polyreactivity |
| QVQLVESGGGLVQAGGSLRLSCAASGFISVRNAMGWYRQAPGKERELVAAISSGDTTDYADSVKGRFTISRDNAKNTVSLQMNSLKAEDTAVYYCAAVYYGRYYYWGQGTQVTVSS | low polyreactivity |
| QVQLVESGGGLVQAGGSLRLSCAASGFISYTYMGWYRQAPGKERELVAGITGSGGSTYYADSVKGRFTISRDNAKNTVYLQMNSLKPEDTAVYYCAAERPRRSPDGLNYWGQGTQVTVSS | high polyreactivity |
| QVQLVESGGGLVQAGGSLRLSCAASGFIVASNAMGGDRQAPGKVRELLAAINSSAGSTYYADSVKGRFTISRDNAKNTVYLQMNSQKPEDTAVYYCNRDDGSVYRRHRRPYYYWGQRTQVTVSS | low polyreactivity |
| QVQLVESGGGLVQAGGSLRLSCAASGFIVYTYAMGWYRPAPGKERELVAAISIGGRTNYADSVKGRFTISRDNAKNTVSLQMNSLKPEDTARYYCAARGYKRIGYWGQGTLVTVSS | high polyreactivity |
| QVQLVESGGGLVQAGGSLRLSCAASGFIYGRNAMGWYRQAPGKERELVAAINWRGGSTYYADSVKGRFTISRDNAKNTVYLQMNSLKAEDTAVYYCAARAPYRYGYDYWGQGTQVTLSS | high polyreactivity |
| QVQLVESGGGLVQAGGSLRLSCAASGFIYSKYAMRWYRQAPGKERELVAAITFSGGSTYYADSVKGRFTISRDNAKKTVYLQMNSLKPEDTAVYYCNAEGSYPDVSPVLGYDYWGQGTQVTVSS | low polyreactivity |
| QVQLVESGGGLVQAGGSLRLSCAASGFNCATNYMGWYRQAPGKERELVAAITKGGGRTYYADSVKGRFTISRDNAKNTVYLQMNSLKPEDTAVYYCAARQLIKYDYWGQGTQVTVSS | low polyreactivity |
| QVQLVESGGGLVQAGGSLRLSCAASGFNFAIYAMGWYRQAPGKERELVAAISSSGGSTYYADSVKGRFTISRDNAKNTVYLQMNSLKPEDTAVYYCNADWSLYWLDYWGQGTQVTVSS | high polyreactivity |
| QVQLVESGGGLVQAGGSLRLSCAASGFNFASNAMGWYRQAPGKERELVAAITKSGGRTYYADSVKGRFTISRDNAMNTVYLQMNSLKPEDTAVYYCAAKVRVVHRPYDHWGQGTQVTVSS | high polyreactivity |
